Experimental data taken from US20190077860A1 (EISAI R AND D MANAGEMENT, published 2019).
Residue numbers refer to the chain shown, from its start.

T1: human EphA6 extracellular region-SEAP-His protein (human, UniProt Q9UF33 23-550)
T1 construct: extracellular domain; also called hEphA6-SEAP-His
T1 sequence (looked up): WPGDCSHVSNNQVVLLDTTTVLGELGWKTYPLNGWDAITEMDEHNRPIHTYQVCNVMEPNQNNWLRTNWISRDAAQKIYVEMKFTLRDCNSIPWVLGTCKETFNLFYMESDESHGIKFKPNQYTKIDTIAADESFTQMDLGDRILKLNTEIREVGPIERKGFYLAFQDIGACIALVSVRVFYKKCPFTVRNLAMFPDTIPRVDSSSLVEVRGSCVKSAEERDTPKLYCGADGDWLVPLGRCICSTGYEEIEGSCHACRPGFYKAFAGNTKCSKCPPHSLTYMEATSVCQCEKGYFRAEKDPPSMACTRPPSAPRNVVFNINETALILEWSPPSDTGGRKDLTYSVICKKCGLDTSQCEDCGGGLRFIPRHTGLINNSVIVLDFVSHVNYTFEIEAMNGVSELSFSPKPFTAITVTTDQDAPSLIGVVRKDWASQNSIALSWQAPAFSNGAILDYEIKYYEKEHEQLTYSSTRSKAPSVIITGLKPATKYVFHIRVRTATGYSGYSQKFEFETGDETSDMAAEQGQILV

T2: human EphA8 extracellular region-SEAP-His protein (human, UniProt P29322 28-542)
T2 construct: extracellular domain; also called hEphA8-SEAP-His
T2 sequence (looked up): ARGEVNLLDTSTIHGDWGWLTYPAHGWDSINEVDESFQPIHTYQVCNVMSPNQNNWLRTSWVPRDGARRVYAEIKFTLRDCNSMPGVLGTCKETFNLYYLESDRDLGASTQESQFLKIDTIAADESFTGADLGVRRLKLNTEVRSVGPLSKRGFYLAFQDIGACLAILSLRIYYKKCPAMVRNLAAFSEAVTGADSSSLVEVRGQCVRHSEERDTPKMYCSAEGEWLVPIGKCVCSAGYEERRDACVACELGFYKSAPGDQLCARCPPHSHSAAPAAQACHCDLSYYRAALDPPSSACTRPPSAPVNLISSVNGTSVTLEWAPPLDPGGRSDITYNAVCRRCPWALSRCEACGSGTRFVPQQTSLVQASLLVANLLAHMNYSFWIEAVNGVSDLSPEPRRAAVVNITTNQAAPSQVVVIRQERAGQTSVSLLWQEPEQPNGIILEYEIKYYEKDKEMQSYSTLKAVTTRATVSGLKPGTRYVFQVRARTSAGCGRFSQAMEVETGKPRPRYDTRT

T3: human EphA10 extracellular region-SEAP-His protein (human, UniProt Q5JZY3 34-565)
T3 construct: extracellular domain; also called hEphA10-SEAP-His
T3 sequence (looked up): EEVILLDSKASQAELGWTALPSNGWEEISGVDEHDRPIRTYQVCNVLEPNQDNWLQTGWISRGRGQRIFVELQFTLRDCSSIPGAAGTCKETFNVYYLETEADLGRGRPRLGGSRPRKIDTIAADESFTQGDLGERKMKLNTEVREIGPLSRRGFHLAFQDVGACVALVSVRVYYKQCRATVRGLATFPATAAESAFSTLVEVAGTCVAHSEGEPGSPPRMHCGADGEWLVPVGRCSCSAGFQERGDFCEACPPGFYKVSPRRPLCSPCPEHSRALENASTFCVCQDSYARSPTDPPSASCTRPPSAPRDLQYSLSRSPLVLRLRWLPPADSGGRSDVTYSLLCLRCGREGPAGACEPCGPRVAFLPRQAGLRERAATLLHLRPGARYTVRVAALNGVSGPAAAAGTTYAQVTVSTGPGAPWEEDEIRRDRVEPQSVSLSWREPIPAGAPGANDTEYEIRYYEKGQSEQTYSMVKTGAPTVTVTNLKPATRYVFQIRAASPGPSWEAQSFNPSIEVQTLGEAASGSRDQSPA

B1: humanized antibody No. 78 (antibody, human IgG1, kappa)
heavy: QVQLVQSGSELKKPGASVKVSCKASGYTFTDYSMHWVRQAPGQGLKWMGWINTETGEPTYADDFKGRFVFSLDTSVSTAYLQISSLKAEDTAVYYCARIPLYYYGSRYWYFDVWGQGTTVTVSSASTKGPSVFPLAPSSKSTSGGTAALGCLVKDYFPEPVTVSWNSGALTSGVHTFPAVLQSSGLYSLSSVVTVPSSSLGTQTYICNVNHKPSNTKVDKRVEPKSCDKTHTCPPCPAPPAAAPSVFLFPPKPKDTLMISRTPEVTCVVVDVSHEDPEVQFNWYVDGVEVHNAKTKPREEQFNSTFRVVSVLTVVHQDWLNGKEYKCKVSNKGLPAPIEKTISKTKGQPREPQVYTLPPSREEMTKNQVSLTCLVKGFYPSDIAVEWESNGQPENNYKTTPPMLDSDGSFFLYSKLTVDKSRWQQGNVFSCSVMHEALHNHYTQKSLSLSPG
light: DIQMTQSPSSLSASVGDRVTITCRASENIYRNLAWYQQKPGKAPKLLVYAATNLADGVPSRFSGSGSGTDYTLTISSLQPEDFATYYCQHFWGTPWTFGQGTKVEIKRTVAAPSVFIFPPSDEQLKSGTASVVCLLNNFYPREAKVQWKVDNALQSGNSQESVTEQDSKDSTYSLSSTLTLSKADYEKHKVYACEVTHQGLSSPVTKSFNRGEC
notes: human Ig kappa; also called L1-4/HK2
B2: humanized antibody No. 84 (antibody, human IgG1, kappa)
heavy: B1 heavy with K46E
light: B1 light with V48L, P80S
notes: human Ig kappa; also called L1-5/HK1
B3: humanized antibody No. 88 (antibody, human IgG1, kappa)
heavy: B1 heavy with D62Q, D63G, K65T
light: B1 light with K45Q, V48L
notes: human Ig kappa; also called L1-6/HA2
B4: humanized antibody No. 83 (antibody, human IgG1, kappa)
heavy: B1 heavy with V2I, D62Q, D63G, K65T
light: B1 light with V48L, P80S
notes: human Ig kappa; also called L1-5/HA4
B5: humanized antibody No. 81 (antibody, human IgG1, kappa)
heavy: B1 heavy with K46E, D62Q, D63G, K65T
light: B1 light with V48L, P80S
notes: human Ig kappa; also called L1-5/HA1
B6: humanized antibody No. 87 (antibody, human IgG1, kappa)
heavy: B1 heavy with K46E, D62Q, D63G, K65T
light: B1 light with K45Q, V48L
notes: human Ig kappa; also called L1-6/HA1
B7: humanized antibody No. 82 (antibody, human IgG1, kappa)
heavy: B1 heavy with D62Q, D63G, K65T
light: B1 light with V48L, P80S
notes: human Ig kappa; also called L1-5/HA2
B8: humanized antibody No. 86 (antibody, human IgG1, kappa)
heavy: B1 heavy with V2I
light: B1 light with V48L, P80S
notes: human Ig kappa; also called L1-5/HK4
B9: humanized antibody No. 85 (antibody, human IgG1, kappa)
heavy: B1 heavy
light: B1 light with V48L, P80S
notes: human Ig kappa; also called L1-5/HK2

Each binder was assayed against T1, human EphA6 extracellular … (assay: ELISA).

A450 as % of hEphA4-SEAP-His [%] | Binder
10 | B1
6 | B2
7.5 | B3
7.5 | B4
8.8 | B5
6.4 | B6
8.7 | B7
8.6 | B8
6.2 | B9

The binders below were run against T4, human EphA4 extracellular region-SEAP-His protein (human, UniProt P54764 20-547) (assay: ELISA).
T4 construct: also called hEphA4-SEAP-His
T4 sequence (P54764 20-547): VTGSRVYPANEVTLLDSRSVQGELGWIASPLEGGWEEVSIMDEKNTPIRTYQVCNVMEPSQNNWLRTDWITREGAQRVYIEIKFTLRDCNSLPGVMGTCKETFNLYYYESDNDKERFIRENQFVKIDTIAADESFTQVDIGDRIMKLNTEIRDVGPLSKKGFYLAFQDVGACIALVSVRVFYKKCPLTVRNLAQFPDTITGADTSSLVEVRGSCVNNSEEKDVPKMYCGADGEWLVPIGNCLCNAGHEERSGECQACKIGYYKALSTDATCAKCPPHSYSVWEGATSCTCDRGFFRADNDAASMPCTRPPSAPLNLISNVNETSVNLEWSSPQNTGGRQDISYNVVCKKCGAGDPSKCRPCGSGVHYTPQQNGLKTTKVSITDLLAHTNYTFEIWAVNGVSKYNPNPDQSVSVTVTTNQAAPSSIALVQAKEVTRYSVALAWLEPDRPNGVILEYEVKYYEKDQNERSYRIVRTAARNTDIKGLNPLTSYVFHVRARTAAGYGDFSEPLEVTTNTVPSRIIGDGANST

A450 as % of hEphA4-SEAP-His [%] | Binder
100 | B1
100 | B2
100 | B3
100 | B4
100 | B5
100 | B6
100 | B7
100 | B8
100 | B9

Each binder was assayed against T2, human EphA8 extracellular … (assay: ELISA).

A450 as % of hEphA4-SEAP-His [%] | Binder
5.4 | B1
5.3 | B2
6.2 | B3
6 | B4
5.2 | B5
5.7 | B6
5.8 | B7
5.7 | B8
5.5 | B9

These binders were tested against T5, human EphA2 extracellular region-SEAP-His protein (human, UniProt P29317 24-537) (assay: ELISA).
T5 construct: extracellular domain; also called hEphA2-SEAP-His
T5 sequence (P29317 24-537): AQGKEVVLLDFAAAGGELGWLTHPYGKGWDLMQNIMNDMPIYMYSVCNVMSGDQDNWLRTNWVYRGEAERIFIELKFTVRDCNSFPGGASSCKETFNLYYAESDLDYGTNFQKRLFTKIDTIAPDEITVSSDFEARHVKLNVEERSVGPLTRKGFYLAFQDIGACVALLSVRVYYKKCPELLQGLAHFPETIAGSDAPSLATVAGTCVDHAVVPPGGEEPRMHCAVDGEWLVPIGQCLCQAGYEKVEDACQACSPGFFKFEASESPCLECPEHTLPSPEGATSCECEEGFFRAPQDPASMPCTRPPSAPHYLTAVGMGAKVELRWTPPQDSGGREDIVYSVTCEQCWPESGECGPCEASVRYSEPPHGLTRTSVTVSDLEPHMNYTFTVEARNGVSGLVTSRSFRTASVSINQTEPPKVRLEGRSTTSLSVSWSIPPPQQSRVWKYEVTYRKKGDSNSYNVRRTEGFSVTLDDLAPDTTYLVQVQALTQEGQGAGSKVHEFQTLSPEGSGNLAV

A450 as % of hEphA4-SEAP-His [%] | Binder
4.9 | B1
4.9 | B2
5.8 | B3
5.8 | B4
4.8 | B5
5.4 | B6
5.4 | B7
5.7 | B8
5.1 | B9

The binders below were run against T3, human EphA10 extracellular … (assay: ELISA).

A450 as % of hEphA4-SEAP-His [%] | Binder
5.2 | B1
5.1 | B2
5.8 | B3
5.6 | B4
4.8 | B5
5.2 | B6
5.4 | B7
5.6 | B8
5 | B9
